Measured values published in patent publication US20020045591A1, “Methods and therapeutic compositions for treating cancer” (priority 1998, published 2002).

What was measured:
[1] = biological target: T1, β-catenin (Cricetulus griseus, UniProt G3H996); experiment: β-catenin level in CHO cells by Western blot; assay type: cell-based; settings: stably transfected CHO cells, FIG. 2A
T1 construct: resulting from the stabilization of the endogenous β-catenin by the transfected cadherin derivatives; endogenous in cells; host or cells: CHO cells, stably or transiently transfected with cadherin derivatives only
T1 sequence (G3H996 1-781): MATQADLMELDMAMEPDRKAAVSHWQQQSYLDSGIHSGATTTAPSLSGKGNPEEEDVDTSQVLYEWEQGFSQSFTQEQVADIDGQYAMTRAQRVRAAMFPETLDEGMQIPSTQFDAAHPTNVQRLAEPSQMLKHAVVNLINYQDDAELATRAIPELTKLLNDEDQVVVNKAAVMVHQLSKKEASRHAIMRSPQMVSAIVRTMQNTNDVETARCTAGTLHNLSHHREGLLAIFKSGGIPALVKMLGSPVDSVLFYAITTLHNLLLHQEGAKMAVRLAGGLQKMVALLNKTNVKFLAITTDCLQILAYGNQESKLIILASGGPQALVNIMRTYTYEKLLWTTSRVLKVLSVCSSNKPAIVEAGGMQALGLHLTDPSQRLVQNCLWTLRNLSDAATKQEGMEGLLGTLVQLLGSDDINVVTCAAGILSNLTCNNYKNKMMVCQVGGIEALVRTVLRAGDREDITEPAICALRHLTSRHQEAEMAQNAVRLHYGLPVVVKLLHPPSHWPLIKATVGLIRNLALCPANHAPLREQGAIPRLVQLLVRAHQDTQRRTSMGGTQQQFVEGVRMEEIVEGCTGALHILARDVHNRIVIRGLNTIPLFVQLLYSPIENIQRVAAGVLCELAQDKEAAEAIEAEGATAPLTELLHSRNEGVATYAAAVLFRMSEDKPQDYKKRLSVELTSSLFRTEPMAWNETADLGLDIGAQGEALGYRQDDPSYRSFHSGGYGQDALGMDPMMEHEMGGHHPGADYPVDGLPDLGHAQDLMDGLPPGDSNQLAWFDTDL
Method: (§1) Cell culture and transfections: CHO and SW480 human colon carcinoma cells were cultured in Dulbecco's modified Eagle's medium containing 10% fetal calf serum in an 8% CO2 incubator at 37° C. Transfections were performed using Lipofectamine (Gibco, BRL, USA) according to the manufacturer's instructions. Stably transfected CHO clones were generated by co-transfection with a plasmid encoding the puromycin resistance gene. Two days after transfection, cells were replated in the presence of 10 μg/ml puromycin (Sigma, Holon, Israel). Stable clones were isolated 2 weeks later and tested for the expression of the transgene by Western blot analysis.
Immunoblotting and immunoprecipitation: The following antibodies were used: polyclonal pan-cadherin or monoclonal anti cadherin (CH-19) and polyclonal anti β-catenin antibodies were from Sigma (Holon, Israel). Monoclonal anti β-catenin, 5H10 (from M. Wheelock), anti IL2Rα (from UBI), anti flag (M2, from IBI), anti HA (clone 12CA5, from Boehringer Mannheim, Germany), anti GFP (polyclonal, from Clontech, Palo Alto, Calif.), anti LEF-1 (polyclonal, kindly provided by Dr. R. Grosschedl). […]

[2] = system: β-catenin-mediated transactivation; experiment: TOPFLASH/FOPFLASH luciferase transactivation in CHO cells; assay type: cell-based; settings: TOPFLASH, FIG. 5A lanes 7-9
Method: as §1
Transactivation assays: CHO cells were transfected with TOPFLASH or FOPFLASH vectors (van de Wetering et al., 1997, ibid) and with pCDNA3 coding for β-galactosidase to normalize for transfection efficiency. The transfection mixture also contained either β-catenin, LEF-1 or cadherin derivatives in different combinations, as indicated. SW480 cells were transfected with TOPFLASH and cadherin derivatives. […] The reactions were stopped with 1 M Na2CO3 and the absorbance at 420 nm was determined. […] The luciferase reaction was monitored by a TD-20e luminometer (Turner, USA) and normalized for the β-galactosidase activity. […]

B1: N-cadherin tail: Cytoplasmic domain of chicken N-cadherin tagged with a Flag epitope (protein)
chain: MKRRDKERQAKQLLIDPEDDVRDNILKYDEEGGGEEDQDYDLSQLQQPDTVEPDAIKPVGIRRLDERPIHAEPQYPVRSAAPHPGDIGDFINEGLKAADNDPTAPPYDSLLVFDYEGSGSTAGSLSSLNSSSSGGEQDYDYLNDWGPRFKKLADMYGGGDD
modifications: left off: small tags and cut ends
effect on β-catenin levels [1]: increase in β-catenin levels
luciferase activity (LEF-1 transactivation) after transfection with LEF-1 and cadherin derivative [2]: no specific transactivation was detected
